Data taken from US20250250355A1 (BIOSION, published 2025).

T1: cynomolgus SIRPα-his protein (cynomolgus)
T1 construct: also called Cyno SIRPα-his; monkey SIRPα
T1 chain: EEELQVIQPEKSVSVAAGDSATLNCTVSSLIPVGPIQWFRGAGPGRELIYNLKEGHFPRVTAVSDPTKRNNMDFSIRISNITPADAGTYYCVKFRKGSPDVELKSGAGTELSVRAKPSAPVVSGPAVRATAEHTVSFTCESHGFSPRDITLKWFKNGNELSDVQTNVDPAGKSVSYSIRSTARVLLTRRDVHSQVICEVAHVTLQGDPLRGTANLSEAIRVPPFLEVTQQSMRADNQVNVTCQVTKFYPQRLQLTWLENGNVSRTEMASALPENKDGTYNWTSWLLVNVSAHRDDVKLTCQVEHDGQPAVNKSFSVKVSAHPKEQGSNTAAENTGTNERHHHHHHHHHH

T2: mouse SIRPα-his (mouse, UniProt P97797 35-363, limits assumed)
T2 chain: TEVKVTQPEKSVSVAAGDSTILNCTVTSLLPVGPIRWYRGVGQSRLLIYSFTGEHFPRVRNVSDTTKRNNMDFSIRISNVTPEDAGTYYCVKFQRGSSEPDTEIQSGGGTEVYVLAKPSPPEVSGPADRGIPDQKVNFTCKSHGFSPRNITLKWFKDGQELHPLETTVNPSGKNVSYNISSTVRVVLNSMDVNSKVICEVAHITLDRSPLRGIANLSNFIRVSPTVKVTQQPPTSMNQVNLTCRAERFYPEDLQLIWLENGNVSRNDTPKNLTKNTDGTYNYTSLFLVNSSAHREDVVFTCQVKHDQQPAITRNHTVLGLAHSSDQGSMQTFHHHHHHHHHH


Assays:
[1] = target: T1, cynomolgus SIRPα-his protein; assay: indirect ELISA on coated cynomolgus SIRPα-his, OD(450-630); curve flat at the baseline (see non_binding)
[2] = target: T3, full length human SIRPγ endogenously expressed on Jurkat cells (human, UniProt Q9P1W8 29-387); assay: cell based binding FACS on Jurkat cells (endogenous human SIRPγ), MFI; curve flat at MFI about 35 up to about 13 nM, rises to about 115 only at the last point (about 67 nM); paragraph 213 says no binding
T3 construct: whole, on cells; also called human SIRPγ expressed on Jurkat cells

[3] = target: T4, full length human SIRPα on cell membranes (HEK293-SIRPα cells; 293F-SIRPα cells) (human, UniProt P78324 31-504); assay: cell based binding FACS on 293F cells expressing human SIRPα, MFI
T4 construct: whole, on cells; also called cell surface human SIRPα; cell surface SIRPα

[4] = target: T5, full length human SIRPβ on cell membranes (HEK293-SIRPβ cells; 293F cells expressing human SIRPβ) (human, UniProt O00241 30-398); assay: cell based binding FACS on 293F cells expressing human SIRPβ, MFI
T5 construct: whole, on cells; also called cell surface human SIRPβ

[5] = target: T6, human FcRn protein (Cat #FCM-H5286, Acro biosystems Inc.) (human, UniProt P55899 24-297; P61769 21-119); assay: SPR (Biacore); human FcRn covalently linked to CM5 chip, antibody flowed from 62.5 µg/ml; pH 6.0
[6] = target: T2, mouse SIRPα-his; assay: indirect ELISA on coated mouse SIRPα-his, OD(450-630)
[7] = target: human SIRPα-V8-his protein (human, UniProt P78324 31-370, limits assumed); assay: indirect ELISA on coated human SIRPα-V8-his, OD(450-630)
[8] = target: human SIRPα protein (soluble, used on 293F-CD47 cells) (human, UniProt P78324 31-370, limits assumed); assay: cell based blocking FACS on 293F-CD47 cells; soluble human SIRPα protein blocked from binding cell surface human CD47, MFI
[9] = target: human SIRPα-isoform 2-his protein (human); assay: indirect ELISA on coated human SIRPα-isoform 2-his, OD(450-630)
[10] = target: T6, human FcRn protein (Cat #FCM-H5286, …); assay: SPR (Biacore); human FcRn covalently linked to CM5 chip, antibody flowed from 62.5 µg/ml; pH 7.4
[11] = target: T4, full length human SIRPα on cell …; assay: cell based blocking FACS on 293F-SIRPα cells; blocked ligand: human CD47 protein (CD47-Fc), MFI
[12] = target: T7, human SIRPα-his protein (human, UniProt P78324 31-370); assay: SPR (Biacore T200); antibody captured on Protein A chip, human SIRPα-his flowed from 200 nM; 1:1 Langmuir fit
[13] = target: human SIRPβ-his protein (human, UniProt O00241 30-371); assay: SPR (Biacore T200); antibody captured on Protein A chip, human SIRPβ-his flowed from 200 nM; 1:1 Langmuir fit
[14] = target: human SIRPγ-his protein (human, UniProt Q9P1W8 29-360, limits assumed); assay: SPR (Biacore T200), antibody captured on Protein A chip, human SIRPγ-his flowed
[15] = target: T3, full length human SIRPγ endogenously …; assay: cell based binding FACS on Jurkat cells (endogenous human SIRPγ), MFI; curve flat at MFI about 35 up to about 13 nM, rises to about 185 only at the last point (about 67 nM); paragraph 213 says no binding
[16] = target: T6, human FcRn protein (Cat #FCM-H5286, …); assay: SPR (Biacore); human FcRn covalently linked to CM5 chip, antibody flowed from 62.5 µg/ml; pH 6.0; pH 6.0
[17] = target: T3, full length human SIRPγ endogenously …; assay: cell based binding FACS on Jurkat cells (endogenous human SIRPγ), MFI; curve not separable in the scan; paragraph 186 says no binding
[18] = target: T1, cynomolgus SIRPα-his protein; assay: indirect ELISA on coated cynomolgus SIRPα-his, OD(450-630); curve not visible in the scan
[19] = target: T4, full length human SIRPα on cell …; assay: cell based binding FACS on HEK293-SIRPα cells, MFI; curve not visible in the scan
[20] = target: T7, human SIRPα-his protein; assay: competitive ELISA on coated human SIRPα-his; blocked ligand: biotin-labeled human CD47-his, OD(450-630); curve not visible in the scan
[21] = target: T4, full length human SIRPα on cell …; assay: cell based blocking FACS on 293F-SIRPα cells; blocked ligand: biotin-labeled human CD47-Fc, MFI; curve only in faint traces
[22] = target: T8, recombinant human SIRPα-Fc protein (human, biotin-labeled (sites not given)); assay: capture ELISA, antibody captured on anti-mouse IgG F(ab')2, biotin-labeled human SIRPα-Fc in solution, OD(450-630); curve not visible in the scan
T8 construct: also called biotin-labeled human SIRPα-Fc protein

[23] = target: T5, full length human SIRPβ on cell …; assay: cell based binding FACS on HEK293-SIRPβ cells, MFI; curve not visible in the scan
[24] = target: human SIRPα-isoform 2-his protein (human); assay: indirect ELISA on coated human SIRPα-isoform 2-his, OD(450-630); curve not visible in the scan

T3 sequence (Q9P1W8 29-387): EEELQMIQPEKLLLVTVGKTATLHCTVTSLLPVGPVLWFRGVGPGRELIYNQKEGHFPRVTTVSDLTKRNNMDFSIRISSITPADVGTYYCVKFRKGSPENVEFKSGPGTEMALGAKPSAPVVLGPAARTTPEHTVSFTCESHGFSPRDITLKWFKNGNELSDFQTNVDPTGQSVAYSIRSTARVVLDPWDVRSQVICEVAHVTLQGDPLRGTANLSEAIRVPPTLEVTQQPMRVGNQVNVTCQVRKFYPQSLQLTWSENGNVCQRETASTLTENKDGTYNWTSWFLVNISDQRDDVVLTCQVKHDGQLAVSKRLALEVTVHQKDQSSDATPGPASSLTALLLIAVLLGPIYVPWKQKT
T5 sequence (O00241 30-398): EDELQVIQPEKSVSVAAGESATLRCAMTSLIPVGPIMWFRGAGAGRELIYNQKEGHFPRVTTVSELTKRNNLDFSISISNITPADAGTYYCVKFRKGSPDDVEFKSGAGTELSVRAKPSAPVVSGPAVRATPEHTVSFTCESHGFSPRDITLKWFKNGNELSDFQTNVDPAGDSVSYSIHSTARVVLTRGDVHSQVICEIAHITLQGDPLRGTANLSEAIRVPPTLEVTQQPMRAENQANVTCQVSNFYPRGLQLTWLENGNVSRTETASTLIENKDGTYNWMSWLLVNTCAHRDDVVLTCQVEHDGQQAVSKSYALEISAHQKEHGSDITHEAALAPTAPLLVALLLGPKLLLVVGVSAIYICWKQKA
T4 sequence (P78324 31-504): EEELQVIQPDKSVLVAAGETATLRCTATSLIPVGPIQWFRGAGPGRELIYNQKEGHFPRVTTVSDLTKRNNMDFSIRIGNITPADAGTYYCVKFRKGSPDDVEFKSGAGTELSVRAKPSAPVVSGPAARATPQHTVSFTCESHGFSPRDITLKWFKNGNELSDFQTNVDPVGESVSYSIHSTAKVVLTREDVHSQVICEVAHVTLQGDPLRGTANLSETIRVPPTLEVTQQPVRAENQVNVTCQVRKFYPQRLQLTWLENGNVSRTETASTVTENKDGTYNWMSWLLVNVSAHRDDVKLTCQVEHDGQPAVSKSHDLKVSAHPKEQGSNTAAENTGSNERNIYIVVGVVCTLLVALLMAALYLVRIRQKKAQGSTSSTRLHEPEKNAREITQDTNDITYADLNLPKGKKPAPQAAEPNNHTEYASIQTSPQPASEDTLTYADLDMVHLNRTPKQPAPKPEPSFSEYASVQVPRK
T7 sequence (P78324 other isoform, or with tags, fused parts or gaps limits assumed): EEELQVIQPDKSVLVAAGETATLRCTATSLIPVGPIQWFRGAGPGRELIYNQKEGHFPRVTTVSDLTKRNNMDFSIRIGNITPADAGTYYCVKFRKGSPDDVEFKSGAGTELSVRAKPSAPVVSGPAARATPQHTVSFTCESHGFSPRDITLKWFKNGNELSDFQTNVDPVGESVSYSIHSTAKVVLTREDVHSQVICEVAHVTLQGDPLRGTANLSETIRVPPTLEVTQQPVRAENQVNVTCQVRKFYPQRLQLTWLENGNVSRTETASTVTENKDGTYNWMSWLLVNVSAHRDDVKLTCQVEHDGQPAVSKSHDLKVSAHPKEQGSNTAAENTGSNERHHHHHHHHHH
Sequence of human SIRPα-isoform 2-his protein (human) (chain, as listed by the source limits assumed): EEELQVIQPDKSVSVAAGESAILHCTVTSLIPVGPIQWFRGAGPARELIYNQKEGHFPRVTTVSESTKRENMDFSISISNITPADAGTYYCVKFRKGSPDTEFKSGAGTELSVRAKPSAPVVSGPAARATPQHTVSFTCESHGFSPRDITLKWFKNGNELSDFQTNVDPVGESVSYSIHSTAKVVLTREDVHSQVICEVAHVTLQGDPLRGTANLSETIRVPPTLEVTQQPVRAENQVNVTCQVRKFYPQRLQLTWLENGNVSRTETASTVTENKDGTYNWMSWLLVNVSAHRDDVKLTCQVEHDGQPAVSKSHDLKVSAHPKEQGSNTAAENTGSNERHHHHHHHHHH
Sequence of human SIRPβ-his protein (O00241 other isoform, or with tags, fused parts or gaps limits assumed): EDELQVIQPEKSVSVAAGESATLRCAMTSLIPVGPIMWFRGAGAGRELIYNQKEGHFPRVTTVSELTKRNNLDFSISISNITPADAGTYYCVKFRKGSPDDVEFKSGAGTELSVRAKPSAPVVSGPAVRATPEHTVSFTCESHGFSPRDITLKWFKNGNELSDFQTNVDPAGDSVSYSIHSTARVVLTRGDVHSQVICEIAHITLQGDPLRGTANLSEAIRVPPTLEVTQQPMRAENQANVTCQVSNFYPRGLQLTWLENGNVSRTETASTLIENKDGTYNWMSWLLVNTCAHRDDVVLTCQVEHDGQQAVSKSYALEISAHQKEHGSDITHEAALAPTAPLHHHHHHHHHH
Sequence of human SIRPα-V8-his protein (P78324 other isoform, or with tags, fused parts or gaps limits assumed): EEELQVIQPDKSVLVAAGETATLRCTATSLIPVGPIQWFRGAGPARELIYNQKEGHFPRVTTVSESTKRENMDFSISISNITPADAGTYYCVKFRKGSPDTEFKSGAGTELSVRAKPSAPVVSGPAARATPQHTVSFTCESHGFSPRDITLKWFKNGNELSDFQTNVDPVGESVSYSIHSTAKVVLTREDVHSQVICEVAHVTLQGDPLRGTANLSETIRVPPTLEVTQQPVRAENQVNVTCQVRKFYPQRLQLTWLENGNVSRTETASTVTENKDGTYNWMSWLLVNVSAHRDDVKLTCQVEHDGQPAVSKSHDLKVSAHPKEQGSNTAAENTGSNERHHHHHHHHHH
Sequence of human SIRPα protein (soluble, used on 293F-CD47 cells) (P78324 31-370 limits assumed): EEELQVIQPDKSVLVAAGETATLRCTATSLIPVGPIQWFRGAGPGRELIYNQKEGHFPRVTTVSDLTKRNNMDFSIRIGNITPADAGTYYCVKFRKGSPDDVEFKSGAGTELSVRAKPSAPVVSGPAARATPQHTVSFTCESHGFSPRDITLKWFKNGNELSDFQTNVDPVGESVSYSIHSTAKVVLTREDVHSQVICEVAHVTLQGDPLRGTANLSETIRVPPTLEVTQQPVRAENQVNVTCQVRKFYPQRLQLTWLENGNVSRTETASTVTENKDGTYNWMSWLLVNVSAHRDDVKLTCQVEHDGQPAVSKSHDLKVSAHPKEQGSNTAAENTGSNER
Sequence of human SIRPγ-his protein (Q9P1W8 29-360 limits assumed): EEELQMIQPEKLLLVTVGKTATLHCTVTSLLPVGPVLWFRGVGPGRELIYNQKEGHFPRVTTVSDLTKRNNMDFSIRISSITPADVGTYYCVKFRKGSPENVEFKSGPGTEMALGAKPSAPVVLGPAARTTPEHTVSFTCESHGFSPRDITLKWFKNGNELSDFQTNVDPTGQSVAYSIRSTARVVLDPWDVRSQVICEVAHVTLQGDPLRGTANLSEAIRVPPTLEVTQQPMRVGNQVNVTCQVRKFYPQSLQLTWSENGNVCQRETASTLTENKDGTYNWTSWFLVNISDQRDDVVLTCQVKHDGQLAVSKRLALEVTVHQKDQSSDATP
T8 sequence (chain, as listed by the source limits assumed): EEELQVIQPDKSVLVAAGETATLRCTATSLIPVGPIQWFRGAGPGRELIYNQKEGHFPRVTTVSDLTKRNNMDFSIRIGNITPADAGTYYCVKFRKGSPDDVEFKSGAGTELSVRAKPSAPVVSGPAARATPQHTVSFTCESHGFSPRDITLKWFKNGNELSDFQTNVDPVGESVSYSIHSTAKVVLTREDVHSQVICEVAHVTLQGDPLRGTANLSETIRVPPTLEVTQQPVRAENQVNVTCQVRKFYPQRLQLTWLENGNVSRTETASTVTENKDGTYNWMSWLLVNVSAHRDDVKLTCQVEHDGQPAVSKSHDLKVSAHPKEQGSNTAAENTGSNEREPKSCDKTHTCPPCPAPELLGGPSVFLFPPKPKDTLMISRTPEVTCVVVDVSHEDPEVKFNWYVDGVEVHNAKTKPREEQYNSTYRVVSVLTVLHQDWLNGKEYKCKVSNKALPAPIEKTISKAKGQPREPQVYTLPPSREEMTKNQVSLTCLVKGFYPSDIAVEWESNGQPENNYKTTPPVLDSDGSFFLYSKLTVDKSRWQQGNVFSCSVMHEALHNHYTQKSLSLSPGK

EC50 [1]	EC50 [3]	EC50 [4]	binding result [6]	EC50 [7]	IC50 [8]	EC50 [9]	IC50 [11]	Kd [12]	koff [12]	kon [12]	Kd [13]	koff [13]	kon [13]	Binder	binding result [14]	also measured
86.7 nM	0.27 nM	0.2 nM	no binding (tested: ~67 nM)	0.179 nM	0.264 nM	0.106 nM	0.573 nM	0.824 nM	0.00105 s⁻¹	1.28e+06 M⁻¹ s⁻¹	2.81 nM	0.002 s⁻¹	713000 M⁻¹ s⁻¹	E1F1B1C3-CDRV1-IgG1 (YTE) (antibody) heavy: QVQLVQSGAEVKKPGASVKVSCKASGYTFTSNAMHWVRQVPGQGLEWMGWIKAGNAEIKYSQKFQGRVTITRDTSATTAYMELSSLRSEDTAVYYCARGDYYYYYMDVWGKGTTVTVSSASTKGPSVFPLAPSSKSTSGGTAALGCLVKDYFPEPVTVSWNSGALTSGVHTFPAVLQSSGLYSLSSVVTVPSSSLGTQTYICNVNHKPSNTKVDKKVEPKSCDKTHTCPPCPAPEAQGGPSVFLFPPKPKDTLYITREPEVTCVVVDVSHEDPEVKFNWYVDGVEVHNAKTKPREEQYNSTYRVVSVLTVLHQDWLNGKEYKCQVSNKALPAPIEKTISKAKGQPREPQVYTLPPSRDELTKNQVSLTCLVKGFYPSDIAVEWESNGQPENNYKTTPPVLDSDGSFFLYSKLTVDKSRWQQGNVFSCSVMHEALHNHYTQKSLSLSPG light: DIQVTQSPSSLSASVGDRVTITCRASQSISDFLNWYQQKPGKAPKLLIHAASSLQAGVPSRFSGSGSGTDFSLTINSLQPEDFATYYCQQSYSTPLSFGGGTKVEIKRTVAAPSVFIFPPSDEQLKSGTASVVCLLNNFYPREAKVQWKVDNALQSGNSQESVTEQDSKDSTYSLSSTLTLSKADYEKHKVYACEVTHQGLSSPVTKSFNRGEC	no binding (tested: antigen starting at 200 nM)	EC50 [2]: ~38.6 nM; Kd [5]: 26.8 nM; Kd [10]: 651 nM
~2930 nM	0.27 nM	0.248 nM	no binding (tested: ~67 nM)	0.148 nM	0.27 nM	0.129 nM	0.488 nM	0.344 nM	0.000402 s⁻¹	1.17e+06 M⁻¹ s⁻¹	1.17 nM	0.000907 s⁻¹	773000 M⁻¹ s⁻¹	E1F1B1C3-CDRV1-IgG1 (antibody) heavy: not shown light: DIQVTQSPSSLSASVGDRVTITCRASQSISDFLNWYQQKPGKAPKLLIHAASSLQAGVPSRFSGSGSGTDFSLTINSLQPEDFATYYCQQSYSTPLSFGGGTKVEIKRTVAAPSVFIFPPSDEQLKSGTASVVCLLNNFYPREAKVQWKVDNALQSGNSQESVTEQDSKDSTYSLSSTLTLSKADYEKHKVYACEVTHQGLSSPVTKSFNRGEC	no binding (tested: antigen starting at 200 nM)	EC50 [15]: ~954 nM; Kd [16]: 56.7 nM
														E1H10B7C7 (antibody, V domains shown) VH: QVQLVQSGAEVKKPGASVKVSCKASGYTFTSYAMQWVRQAPGQRLEWMGWIIAGNGDTKYSQNFQDRVTLTRDTSANTAYMDLSGLRSEDTAVYYCARGSGFSGYGYFDKWGQGTLVTVSS VL: DIQMTQSPSSLSASVGDRVTITCRASHSISSYLNWYQQKPGKVPKLLIYASSSLQSGVPSRFSGNGSGTDFTLIISSLQPEDFATYYCQQSHSIPLTFGGGTKVEIK		EC50 [17]: 0.5 nM; EC50 [18]: 0.131 nM; EC50 [19]: 0.842 nM; IC50 [20]: 2.68 nM; IC50 [21]: 0.853 nM; EC50 [22]: 0.103 nM; EC50 [23]: 0.689 nM; EC50 [24]: 0.162 nM
